Consider 10 molecules from paper PMC13254535, “The RecBCD complex interacts directly with the DNA sliding clamp in Escherichia coli” (Nucleic Acids Research, 2026).

Numbering of substitutions follows the chain as printed. In names and notes the source's numbering stands.

In assay [1] the target is β-clamp (Escherichia coli, UniProt P0A988). Briefly: Saturation transfer difference (STD)-NMR of peptides with β-clamp. The settings on record: 150 µM peptide, 1.5 µM β-clamp; 25°C; 20 mM sodium phosphate, 100 mM NaCl, 5 mM DTT, 0.3% DMSO, 5% D2O, pH 7.4; 600 MHz. The arrangement: made in house. Format: binding.
Sequence of β-clamp (P0A988 whole entry): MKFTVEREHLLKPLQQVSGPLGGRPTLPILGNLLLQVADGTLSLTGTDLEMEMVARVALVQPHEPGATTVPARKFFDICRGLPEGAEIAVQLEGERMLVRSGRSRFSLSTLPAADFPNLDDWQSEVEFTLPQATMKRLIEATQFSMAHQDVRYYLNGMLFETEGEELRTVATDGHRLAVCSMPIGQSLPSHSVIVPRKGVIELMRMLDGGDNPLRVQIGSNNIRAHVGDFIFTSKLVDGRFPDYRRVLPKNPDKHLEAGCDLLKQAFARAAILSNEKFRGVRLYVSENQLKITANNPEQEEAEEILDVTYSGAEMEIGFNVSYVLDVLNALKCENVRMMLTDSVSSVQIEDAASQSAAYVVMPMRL
Method: All peptides, except Pol III C-terminal ([sequence]), were N-terminally acetylated and C-terminally amidated to remove charges in the N-and C-termini, not present in the context of the full-length proteins.
Unlabeled and ^2H, ^13C, ^15N-labeled E. coli β-clamp was expressed and purified as previously described [54]. The β-clamp concentration was determined by absorbance at 280 nm measured on a NanoDrop ND-1000 spectrophotometer (Thermo Fisher Scientific Inc.) and using an extinction coefficient calculated by the Expasy ProtParam web tool (https://web.expasy.org/protparam/) [55]. All β-clamp concentrations are listed as the protomer concentration. The peptides were readily soluble at micromolar concentration, although at high micromolar concentrations, we cannot rule out the presence of aggregates.
Saturation transfer difference (STD)-nuclear magnetic resonance (NMR) experiments were performed at 25°C on a Bruker Avance III HD 600 MHz NMR spectrometer equipped with a 5-mm QCI Cryoprobe. […] Samples were transferred to 5-mm NMR tubes.
The target in assay [2] is T1, Escherichia coli β-clamp (DnaN), recombinantly expressed and purified (Escherichia coli, UniProt P0A988 1-366).
T1 construct: β-clamp (dnaN), E. coli; homodimer; Unlabeled in STD-NMR and ITC; 2H,13C,15N-labeled in the TROSY-HSQC experiments; also called DNA sliding clamp; source: recombinantly expressed and purified as previously described [54]
T1 sequence (P0A988 whole entry): as above
Briefly: STD-NMR; 150 µM peptide with 1.5 µM unlabeled β-clamp, 20 mM sodium phosphate, 100 mM NaCl, 5 mM DTT, 0.3% DMSO, pH 7.4, 25°C. The settings on record: both partners purified.

Assay [3] relates to BTH101 ΔrecB cells. Briefly: Western blot of RecB expression level. The arrangement: species or system Escherichia coli. To be noted: pUT18C constructs in BTH101 ΔrecB; Ponceau S normalized; relative to BTH101 wild type. (In general: Immunoblotting shows a protein as a band on a membrane.)
Method: Samples, including purified RecB, β-clamp (purified as previously explained for co-immunoprecipitation), input (10 µg; 0.5%), and pull-down eluates, and samples from BTH101 cultures used in survival assays, were mixed with 1 mM dithiothreitol (DTT) and 1× NuPAGE LDS sample buffer, then heated to 75°C for 10 min. […] SeeBlue Plus2 Pre-stained Protein Standard (Invitrogen) was used as a molecular weight marker.
Proteins were transferred onto 0.2-µm nitrocellulose membranes using the Trans-Blot Turbo Transfer System (Bio-Rad), and membranes were blocked in 5% (w/v) skim milk (Merck) in PBS-T (PBS with 0.1% Tween-20) for 45–60 min at room temperature. […] Following protein transfer, these membranes were also incubated in 0.1% (w/v) Ponceau S solution for 5 min to verify transfer efficiency and account for total protein loading. The stain was visualized, imaged for densitometric normalization, and subsequently removed by washing with deionized water prior to blocking. […]
Relative RecB levels were quantified from the western blot images using Fiji (ImageJ) [58]. […] The lane profiles were plotted, and the measured signal from each lane was first normalized to the relevant Ponceau stain signal from the same lane and then to the wild-type strain.
Assay [4] relates to ΔrecA ΔrecB cells. Kind of assay: Basal DNA content without UV. The settings on record: expressed from pUT18C in ΔrecA ΔrecB; no UV; compared to wild-type RecB. The assay is classed as cell-based, Escherichia coli. The protocol:
(§1) IMR13 (ΔrecA) served as a positive control for RecB-mediated DNA degradation, while IMR19 (ΔrecA ΔrecB) was used as a negative control.
(§2) Overnight cultures were diluted to an OD600 of 0.01 into LB medium supplemented with appropriate antibiotics and incubated with shaking at 37°C until they reached an OD600 of 0.2. Each culture was split into two 1 ml aliquots. One aliquot was fixed immediately in ethanol (50% final concentration) to assess DNA content prior to UV exposure. The second aliquot was pelleted, resuspended in 1× PBS, and exposed to UV light at a dose of 50 J/m^2 (CL-1000 Ultraviolet crosslinker, UVP). […]
(§3) Imaging was performed on a Leica DM6000 B fluorescence microscope equipped with a 100× oil immersion objective (Leica HCX Plan Apochromat 100×, 1.40 NA, PH3 CS), a Leica EL6000 metal-halide illumination system, and a Hamamatsu C9100-14 EM-CCD camera. For each sample, six fields of view were acquired, each including both phase-contrast and fluorescence channels. Fluorescence imaging was conducted using a narrow band-pass filter set optimized for CFP (Excitation: 426–446 nm; Emission: 460–500 nm; exposure time: 30 ms). All imaging parameters—including exposure time, illumination intensity, and gain—were kept constant across all strains, treatments, and replicates to ensure quantitative comparability and minimize experimental bias. […]

For assay [5], the system named is ΔrecA ΔrecB cells. Briefly: DNA degradation assay after UV ("reckless" DNA degradation). To be noted: expressed from pUT18C in ΔrecA ΔrecB; UV 50 J/m^2, 3 h; Hoechst 33258 microscopy. The assay is classed as cell-based, Escherichia coli. The protocol:
as §1, §2, §3

Assay [6] concerns recB strains. The settings on record: RecB mutation D1080A; ref [82]; cited from earlier work.
In assay [7] the test system is RecA. The settings on record: RecB mutation D1080A; ref [82]; cited from earlier work.
Assay [8] addresses T1, Escherichia coli β-clamp (DnaN), …. Briefly: ITC; 278-294 µM β-clamp in the syringe titrated into 70.6 µM peptide in the cell; 20 mM sodium phosphate, 100 mM NaCl, 1 mM TCEP, 0.02% DMSO, pH 7.4, 25°C; one-site model; three replicates. To be noted: both partners purified. (In general: ITC needs no label: the signal is the heat of the interaction.)

For the molecule “EQVELEFD [DNA polymerase III C-terminal CBM peptide, positive control, reference compound]”, in assay [1], the STD-NMR binding entry is recorded as “clear binding”.

Take “GKNQALRAV [phenylalanine-to-alanine variant of the RecB helicase motif peptide]”: the STD-NMR binding result in assay [1] is given as “did not exhibit detectable STD signals under the conditions tested”.

Consider “GKNQALRFV [RecB helicase motif peptide (residues 485–489) with one C-terminal and three N-terminal flanking residues]”, for which the STD-NMR binding result in assay [1] is on record as “did not exhibit detectable STD signals under the conditions tested”.

Regarding “GQADMFG [DNA polymerase III internal CBM peptide, positive control, reference compound]”, the STD-NMR binding result in assay [1] is given as “clear binding”.

As for “KQVEMEAY [QVEMEF variant in which the terminal phenylalanine was replaced with alanine]”, in assay [1], the STD-NMR binding result is recorded as “no detectable binding”.

B1: Pol III internal peptide (GQADMFG) (peptide)
peptide: Ac-GQADMFG-NH2
notes: also called QADMF peptide; source: synthetic peptide; bought: TAG Copenhagen
As to B1, the binding result in assay [2] was “binds”.

B2: RecBF489A: RecB with an F489A substitution in the QALRF motif (protein, UniProt P08394 2-1180, looked up, variant F489A)
RecBCD enzyme subunit RecB: SDVAETLDPLRLPLQGERLIEASAGTGKTFTIAALYLRLLLGLGGSAAFPRPLTVEELLVVTFTEAATAELRGRIRSNIHELRIACLRETTDNPLYERLLEEIDDKAQAAQWLLLAERQMDEAAVFTIHGFCQRMLNLNAFESGMLFEQQLIEDESLLRYQACADFWRRHCYPLPREIAQVVFETWKGPQALLRDINRYLQGEAPVIKAPPPDDETLASRHAQIVARIDTVKQQWRDAVGELDALIESSGIDRRKFNRSNQAKWIDKISAWAEEETNSYQLPESLEKFSQRFLEDRTKAGGETPRHPLFEAIDQLLAEPLSIRDLVITRALAEIRETVAREKRRRGELGFDDMLSRLDSALRSESGEVLAAAIRTRFPVAMIDEFQDTDPQQYRIFRRIWHHQPETALLLIGDPKQAIYAFRGADIFTYMKARSEVHAHYTLDTNWRSAPGMVNSVNKLFSQTDDAFMFREIPFIPVKSAGKNQALRAVFKGETQPAMKMWLMEGESCGVGDYQSTMAQVCAAQIRDWLQAGQRGEALLMNGDDARPVRASDISVLVRSRQEAAQVRDALTLLEIPSVYLSNRDSVFETLEAQEMLWLLQAVMTPERENTLRSALATSMMGLNALDIETLNNDEHAWDVVVEEFDGYRQIWRKRGVMPMLRALMSARNIAENLLATAGGERRLTDILHISELLQEAGTQLESEHALVRWLSQHILEPDSNASSQQMRLESDKHLVQIVTIHKSKGLEYPLVWLPFITNFRVQEQAFYHDRHSFEAVLDLNAAPESVDLAEAERLAEDLRLLYVALTRSVWHCSLGVAPLVRRRGDKKGDTDVHQSALGRLLQKGEPQDAAGLRTCIEALCDDDIAWQTAQTGDNQPWQVNDVSTAELNAKTLQRLPGDNWRVTSYSGLQQRGHGIAQDLMPRLDVDAAGVASVVEEPTLTPHQFPRGASPGTFLHSLFEDLDFTQPVDPNWVREKLELGGFESQWEPVLTEWITAVLQAPLNETGVSLSQLSARNKQVEMEFYLPISEPLIASQLDTLIRQFDPLSAGCPPLEFMQVRGMLKGFIDLVFRHEGRYYLLDYKSNWLGEDSSAYTQQAMAAAMQAHRYDLQYQLYTLALHRYLRHRIADYDYEHHFGGVIYLFLRGVDKEHPQQGIYTTRPNAGLIALMDEMFAGMTLEEA
For B2, the “RecB expression level relative to endogenous RecB” value in assay [3] is approximately 2 times. The “basal DNA content” value in assay [4] is on record as “No significant difference in DNA content”. Moreover, the “reckless DNA degradation after UV” value in assay [5] is “did not”.

B3: D1080A: RecB mutation that disrupts the interaction between RecB and RecA (protein, UniProt P08394 2-1180, looked up, variant D1080A)
RecBCD enzyme subunit RecB: B2 RecBCD enzyme subunit RecB with A488F, D1079A
For B3, the “survival rates after UV exposure” value in assay [6] is reported as “comparable to those observed in strains with a complete recB deletion”. Besides, the “interaction between RecB and RecA” value in assay [7] is “disrupts the interaction between RecB and RecA”.

B4: RecB nuclease motif peptide (KQVEMEFY) (peptide)
peptide: Ac-KQVEMEFY-NH2
notes: also called QVEMEF peptide; RecB-derived QVEMEF peptide; source: synthetic peptide; bought: TAG Copenhagen
The term Kd denotes the concentration at which binding is half-saturated. For B4, the Kd in assay [8] is 2000 nM.

B5: Pol III C-terminal peptide (EQVELEFD) (peptide)
peptide: EQVELEFD
notes: free termini; also called QVELEF peptide; source: synthetic peptide; bought: TAG Copenhagen
As for B5, the binding result in assay [2] is “binds”.
